US12514938B2, “Fibroblast activation protein targeting peptides” (PERSPECTIVE THERAPEUTICS, INC., priority 2023, dated 2026)
*1 amine or outer side, *2 acyl side, *3 side chain or, on linkers, in order; H or OH if unused. Where a SMILES comes first, the peptide text is derived from it. Bridges are numbered along the chain shown (N, C = ends). The star is where a group is joined. X1 = NC(=O)CN1CCN(CC(=O)O)CCN(CC(=O)*)CCN(CC(=O)O)CC1; oXylylene = c1ccc(C[*:2])c(C[*:1])c1; PEG2 = NCCOCCOCCC(=O)O

Experiments:
hFAP-HT1080 tumors = assay: Radiotherapeutic efficacy in human fibrosarcoma xenograft model; type: in vivo, athymic nude mice; conditions: 4.5-5.4 MBq over three fractionated doses, weight recorded over 70 days
Method: In vivo efficacy was determined in a sarcoma model where hFAP is expressed on the membrane of cancer cell surface. HT1080 cells engineered to express hFAP. 8 days prior to treatment, athymic nude mice were inoculated with approximately 2 million cells. The mice were then randomized by tumor size and divided into two groups for control and treatment. The treated group was treated with 4.5-5.4 MBq [^212Pb]-Pb-VMT-FAP-2-59 over three fractionated doses approximately 2 weeks apart. Two mice were treated a fourth time, at day 48 and day 53 with an additional 1.9-2.1MBq. Tumor volume was measured via caliper, and weight recorded over 70 days. […] Efficacy of VMT-FAP-2-59 in athymic nude mice bearing HT1080-FAP tumors. Tumor volume and weight was monitored over 70 days. The treatment group was given 4.5-5.4MBq ^212Pb-VMT-FAP-2-59 over 3 fractionated doses. Two mice with tumor recurrence were given an additional 1.9-2.1 MBq, as indicated by dashed arrows.

[1] = target: T1, Human Fibroblast Activation Protein (FAP) (Homo sapiens, UniProt Q12884); assay: Enzyme inhibition assay against human FAP (substrate Z-GP-AMC), Example 1; type: biochemical; conditions: human FAP 5 ng/well, 50 μM Z-GP-AMC; Ki from IC50 by Cheng-Prusoff
T1 sequence (Q12884 1-760): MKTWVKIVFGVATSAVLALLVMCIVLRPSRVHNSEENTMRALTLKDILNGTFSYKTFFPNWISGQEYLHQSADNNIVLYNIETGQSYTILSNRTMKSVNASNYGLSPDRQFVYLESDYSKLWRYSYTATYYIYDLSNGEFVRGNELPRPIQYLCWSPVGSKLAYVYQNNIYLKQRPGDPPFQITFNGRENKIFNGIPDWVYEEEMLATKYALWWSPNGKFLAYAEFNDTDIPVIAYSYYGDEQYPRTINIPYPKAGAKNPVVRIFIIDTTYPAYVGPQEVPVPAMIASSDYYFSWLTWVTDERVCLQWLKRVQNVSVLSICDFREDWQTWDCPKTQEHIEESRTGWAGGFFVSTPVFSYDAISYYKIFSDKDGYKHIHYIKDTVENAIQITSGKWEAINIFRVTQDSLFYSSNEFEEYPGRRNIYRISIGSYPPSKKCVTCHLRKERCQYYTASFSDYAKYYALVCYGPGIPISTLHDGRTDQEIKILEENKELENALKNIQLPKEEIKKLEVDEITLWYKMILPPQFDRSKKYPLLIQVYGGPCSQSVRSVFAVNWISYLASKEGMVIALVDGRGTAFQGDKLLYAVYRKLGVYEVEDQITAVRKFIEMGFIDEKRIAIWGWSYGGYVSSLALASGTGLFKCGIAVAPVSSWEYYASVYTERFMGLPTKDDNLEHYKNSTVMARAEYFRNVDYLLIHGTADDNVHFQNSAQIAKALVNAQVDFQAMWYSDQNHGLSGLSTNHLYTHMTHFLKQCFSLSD
How it was run: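 FAP (5 ng/well) preincubated 10 min at RT with peptide (10^−6 to 10^−12), then 50 μM Z-GP-AMC added for 1 h at RT, protected from light. Buffer 50 mM Tris-HCl, 1 M NaCl, 1 mg/mL BSA, pH 7.5; fluorescence at ex/em 360/460. IC50 from non-linear regression, converted to Ki via Cheng-Prusoff using known substrate Km.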

Compound | Treatment-related toxicity (hFAP-HT1080 tumors) | Ki [1] [nM]
C[C@@H](O)[C@@H]1NC(=O)[C@@H](NC(=O)CCOCCOCCNC(=O)CN2CCN(CC(=O)O)CCN(CC(N)=O)CCN(CC(=O)O)CC2)CSCc2ccccc2CSC[C@@H](C(N)=O)NC(=O)[C@H](Cc2c[nH]c3ccccc23)NC(=O)[C@H](Cc2c[nH]c3ccccc23)NC(=O)[C@H](CCC(N)=O)NC(=O)[C@H](CCC(=O)O)NC(=O)[C@H](Cc2c[nH]c3ccccc23)NC(=O)[C@@H]2CCCN2C1=O [[^212Pb]VMT-FAP-2-59, metal not drawn] ({X1-PEG2}-CTPWEQWWC-NH2; linker 1-9 via oXylylene) | No treatment-related toxicity was observed | –
C[C@@H](O)[C@@H]1NC(=O)[C@@H](NC(=O)[C@H](CO)NC(=O)CCOCCOCCNC(=O)CN2CCN(CC(=O)O)CCN(CC(N)=O)CCN(CC(=O)O)CC2)CSCc2ccccc2CSC[C@@H](C(N)=O)NC(=O)[C@H](Cc2c[nH]c3ccccc23)NC(=O)[C@H](Cc2c[nH]c3ccccc23)NC(=O)[C@H](CCC(N)=O)NC(=O)[C@H](CCC(=O)O)NC(=O)[C@H](Cc2ccccc2)NC(=O)[C@@H]2CCCN2C1=O [VMT-FAP-2-30, PSC-PEG2-S-[C(oXdB)TPFEQWWC]-NH2] ({X1-PEG2}-SCTPFEQWWC-NH2; linker 2-10 via oXylylene) | – | 0.04
PSC-Bn-NCS-PEG1-[C(oXdB)TPWEQWWC]-NH2 [VMT-FAP-2-72] | – | 0.79
